Test results: patent publication US7076372 (Takeda / Millennium, dated 2006)

Target: the molecule itself
Assay: X-ray crystal structure, two MvaS molecules in the asymmetric unit

B1: MvaS from E. faecalis (HMG-CoA Synthase), full-length with non-cleavable carboxy-terminal six histidine tag, seleno-methionine labeled (enzyme)
chain: MTIGIDKISFFVPPYYIDMTALAEARNVDPGKFHIGIGQDQMAVNPISQDIVTFAANAAEAILTKEDKEAIDMVIVGTESSIDESKAAAVVLHRLMGIQPFARSFEIKEACYGATAGLQLAKNHVALHPDKKVLVVAADIAKYGLNSGGEPTQGAGAVAMLVASEPRILALKEDNVMLTQDIYDFWRPTGHPYPMVDGPLSNETYIQSFAQVWDEHKKRTGLDFADYDALAFHIPYTKMGKKALLAKISDQTEAEQERILARYEESIVYSRRVGNLYTGSLYLGLISLLENATTLTAGNQIGLFSYGSGAVAEFFTGELVAGYQNHLQKETHLALLDNRTELSIAEYEAMFAETLDTDIDQTLEDELKYSISAINNTVRSYRNKGHHHHHH
modifications: selenomethionine (MSE) in place of methionine, 100% incorporation by mass spectrometry
notes: Crystallised as a complex with the small molecule HMG-CoA; There are two MvaS molecules in the asymmetric unit, described as a dimer; Coordinates lack residues 1 and 384-391 (molecule A) and residues 1 and 388-391 (molecule B); also called MvaS Ef
binding result: binds
